# Measured values from US20230331824A1 (ROCKEFELLER UNIVERSITY, published 2023).
# Read-outs that look alike come from different tables or passages of the source.
# B1: S1-1 (VHH)
# VHH: QVQLVESGGGLVQAGGSLRLSCAASGMPFSSYAMGWFRQAPGKEREFVAAVNWNGISTYLADSVKGRFTASRDNAKNTAYLQMNSLKPEDTAVYYCAADSKGWSEWGMDYWGKGTLVTVS
# B2: S2-20 (VHH)
# VHH: QVQLVESGGGLVQPGGSLRLSCAASGFTLTYYTISWFRQAPGKEREWVSSSRISGNTYYTDSVKGRFTISRDNAKSVVYLQMNSLKPEDTATYYCASGRNIPYDTYTNPTKYDYWGRGTQVTVS
# notes: also called S2 Nanobody # 20
# B3: S1-8 (VHH)
# VHH: QVQLVESGGGLVQAGGSLRLSCAASGRVLSSYVMGWFRQAPGKEREFVAAIRWNGGSTFYADSVKGRLTISRDNAKNTVYLQMNSLKPEDTAAYYCAASPRTMYDATYYYSRTSYDYWGQGTQVTVS
# notes: also called S1 Nanobody # 8
# B4: S2-23 (VHH)
# VHH: QVQLVESGGGLVQPGGSLRLSCAASGRTFSSAMMGWFRQAPGKEREFVASIDWRYQYRYYADSVKGRFTISRDNAKNMVYLQMNSLKPEDTAVYYCACQIERSGIYHYEDSNKYQSWGQGTQVSVS
# notes: also called S2 Nanobody # 23
# B5: S1-13 (VHH)
# VHH: EVQLVESGGGLVQPGGSLKLSCAASGFTLDDYTIGWFRQAPGKEREGVSYISSSGSNSYYEDSVKGRFTISRDNAKSTVYLQMNSLKPEDTAVYYCAARRVWQQTIVVRGPVHYEYWGHGTQVTVS
# notes: also called S1 Nanobody # 13
# B6: S2-49 (VHH)
# VHH: DVQLVESGGGLVQPGGSLRLSCAVSGLTLPYFTISWFRQAPGKEREWVSSSRITGNTYYADSVKGRFTVSRDNAKSTVYLQMNRLKAEDTATYYCASGRNINYYTNSAEYNYWGRGTQVTVS
# notes: also called S2 Nanobody # 49
# B7: S1-RBD-16 (VHH)
# VHH: QVQLVESGGGLVQSGGSLRLSCVASGRGFDRYPMGWFRQAPGKEREFVGGINWNGANTYYADSVKGRFTISRDNTKNTVYLQMNSLKPEDTALYYCAADQHYMGSPPPKEYEYDYWGQGTQVTVS
# B8: S1-RBD-29 (VHH)
# VHH: QVQLVESGGGLVQDGGSLRLSCAASGLASIVFNMGWFRQAPGKEREFVAGILGSGQSTYYGNSVKGRFTISRDSAKNTVYLQMNSLKPEDTAVYYCAAGGRLDLVNTTGGYEPTYWGQGTQVTVS
# B9: S2-44 (VHH)
# VHH: QVQFVESGGGLVQPGGSLRLSCVGSEFTLDNYDIGWFRQAPGKEREWVSCITPRGNIINYADSVKGRFTISRDNAKNTAFLQMNSLKPEDTAVYYCARSSALYDCSQRQTRFFSSWGQGTQVTVS
# notes: also called S2 Nanobody # 44
# B10: S2-12 (VHH)
# VHH: QVQLVESGGGLVQAGGSLRLSCVASEPTFSSRTMGWFRQAPGKERDFVAAMPWWKGALPNYKDSVKGRFTISIDSAKNTMYLQMNSLKPEDTAVYYCAASKTWSPRTEVATEHEFRGQGTQVTVS
# notes: also called S2 Nanobody # 12
# B11: S1-18 (VHH)
# VHH: QVRLVESGGGLVQPGGSLRLSCVVSGVSGSAFRFNRLGWYRQPPGKERELVASISSGGSTNYADSVKGRFTISRDNAKSTVSLQMNSLKPEDTAVYYCNIRADFFSSGRTGDWGQGTQVTVS
# notes: also called S1 Nanobody # 18
# B12: S2-30 (VHH)
# VHH: QVQLVESGGGLVQAGGSLRLSCAASGSTFGNYAMGWYRQPPQAPGNQRDLVAFISTTGSTNYADSVKGRFTISRDNAKNTMYLQMNSLKPEDTAVYYCQAIERIVGYVSWGQGTQVTVS
# notes: also called S2 Nanobody # 30
# B13: S2-37 (VHH)
# VHH: QVQVMESGGGLVQAGGSLRLSCAASTGILGGYDMRWYRQTPGNERELVASISSDGSTNYVDFVKGRFTISSDNAKNTVYLQMDSLKSEDTAVYYCNMRSTYYAIDYWGRGTQVTVS
# notes: also called S2 Nanobody # 37
# B14: S2-24 (VHH)
# VHH: QVQLVESGGGLVQAGGSLRLSCAASGVTFSSHHMAWYRQTPGKQRELVATLASGGDTNYADSVKGRFTISRDNTKNTIYLQMNSLKPEDTAVYYCNARLWATGFRDYWGQGTQVTVS
# notes: also called S2 Nanobody # 24
# B15: S1-RBD-23 (VHH)
# VHH: QVHLVESGGDLVQPGGSLRLSCVASGSGFENNAITWYRQAPGKERELVSGITSGGSTNYADSVKGRFTISRDNAKNTVYLEMNSLKPEDTAVYLCQAVAWDSRRRSVVAFWGQGTQVTVS
# B16: S1-RBD-13 (VHH)
# VHH: EVQLVESGGGLVQAGGSLRLSCAAPTLTLSSHTIGWFRQAPGKEREGVSYIPMTGLPIYCRDSVKGRFTISTDNAKNTVYLQMDSLKPEDTAVYYCAALLGVRSRMCPESVYTYWGQGTQVTVS
# notes: also called S1-RBD Nanobody # 13
# B17: S2-29 (VHH)
# VHH: QVQLVESGGGLVQPGGSLRLSCAASGRIFSSNAMGWYRQAPGKEREWVACISSGSSTNYADSVKGRFTISRDNAKNTVYLQMNSLKPEDTAVYYCISKEVGWCGREGPIGSWGQGTQVTVS
# notes: also called S2 Nanobody # 29
# B18: S2-34 (VHH)
# VHH: QVQLVESGGGLVQTGGSLRLSCAASGITFNTYGMGWYRQAPGKQRELVAGIPSIGNINYARFVQGRFTVSRDDGKKAVYLQMNSLKPEDTAIYYCNLQTRFGTNYWGQGTQVTVS
# notes: also called S2 Nanobody # 34
# B19: S1-RBD-40 (VHH)
# VHH: QVQLVESGGGLVQAGGSLRLSCAASGITFSNYGMVWWRQAPGKQREFVASISSGRDTNYADFVKGRFTISRDNAKNTVHLQMNSLKPEDTAVYYCYTVTDRSDYWGQGTQVTVS
# B20: S1-3 (VHH)
# VHH: QVQLVESGGGLVQAGGSLRLSCAASGSTFSNTGLGWYRQAPGKQREWVASISPSGSTSYLDSVRGRFIFSRDNAKNIAYLQMNSLKPEDTAVYYCNTLPRSGSWGQGTQVTVS
# B21: S2-45 (VHH)
# VHH: QVQLVESGGGLVQAGGSLRLSCAASGLTFSSRAMAWFRQAPGKEREFVARISWSGRNTYYGDSVKGRFTISRDNAKNTVYLQMSSLEPEDTAVYRCAADQQYYNRYYNDEQGYAFWGQGTQVTVS
# notes: also called S2 Nanobody # 45
# Assays:
# [1] = target: SARS-CoV-1 spike on pseudovirus (SARS-CoV-1, UniProt P59594 14-1255); assay: cell-based or functional assay
# [2] = target: T1, recombinant SARS-CoV-2 spike S2-His (SARS-CoV-2, UniProt P0DTC2 686-1213); assay: pull-down on immobilized S2, band quantified
# T1 construct: domain: S2
# [3] = target: T2, recombinant SARS-CoV-2 spike S1-His (SARS-CoV-2, UniProt P0DTC2 16-685); assay: pull-down on immobilized S1, band quantified
# T2 construct: domain: S1
# [4] = target: T3, recombinant SARS-CoV-2 spike RBD (untagged) (SARS-CoV-2, UniProt P0DTC2 319-541); assay: SPR
# T3 construct: domain: RBD
# SARS-CoV-2 spike protein [5] = target: T4, SARS-CoV-2 spike protein (SARS-CoV-2, UniProt P0DTC2 14-1273); assay: cell-based or functional assay
# [6] = target: T3, recombinant SARS-CoV-2 spike RBD …; assay: SPR; remark: listed apart in the source
# SARS-CoV-2 spike protein [7] = target: T4, SARS-CoV-2 spike protein; assay: cell-based or functional assay; remark: listed apart in the source
# [8] = target: T3, recombinant SARS-CoV-2 spike RBD …; assay: periplasm pull-down on immobilized S1-RBD, SDS-PAGE
binder,measurement,setting,value
B1,SARS-CoV-1 PSV neutralisation IC50,[1],8.62 nM
B2,binding result,[2],binds
B3,binding result,[3],binds
B4,binding result,[2],binds
B5,binding result,[3],binds
B6,binding result,[2],binds
B7,Kd,[4],3.73 nM
same,koff,[4],6.25e-05 s⁻¹
same,kon,[4],16800 M⁻¹ s⁻¹
same,PSV neutralisation IC50,SARS-CoV-2 spike protein [5],79.2 nM
B8,Kd,[6],2.51 nM
same,koff,[6],0.00135 s⁻¹
same,kon,[6],536000 M⁻¹ s⁻¹
same,PSV neutralisation IC50,SARS-CoV-2 spike protein [7],9.53 nM
B9,binding result,[2],binds
B10,binding result,[2],binds
B11,binding result,[3],binds
B12,binding result,[2],binds
B13,binding result,[2],binds
B14,binding result,[2],binds
B15,Kd,[4],0.0159 nM
same,koff,[4],4.61e-05 s⁻¹
same,kon,[4],2.89e+06 M⁻¹ s⁻¹
same,PSV neutralisation IC50,SARS-CoV-2 spike protein [5],7.31 nM
B16,binding result,[8],binds
B17,binding result,[2],binds
B18,binding result,[2],binds
B19,Kd,[6],0.0371 nM
same,koff,[6],2.77e-05 s⁻¹
same,kon,[6],747000 M⁻¹ s⁻¹
same,PSV neutralisation IC50,SARS-CoV-2 spike protein [7],25.6 nM
B20,SARS-CoV-1 PSV neutralisation IC50,[1],4160 nM
B21,binding result,[2],binds
